Substitutions are numbered along the chain they refer to.
B1: wild-type Bet v 1-Mal d 1 hybrid molecule (SEQ ID NO: 3) (protein)
chain: HHHHHHGVFNYETETTSVIPAARLFKAFILDGDNLFPKVAPQAISSVENIEGNGGPGTIKKISFPEGFPFKYVKDRVDEVDHTNFKYNYSVIEGGPIGDTLEKISNEIKIVATPDGGSILKINNKYHTKGDHEVKAEQIKASKEMGETLLRAVESYLLAHSDAYNEFGVYTFENEFTSEIPPSRLFKAFVLDADNLIPKIAPQAIKQAEILEGDGGPGTIKKITFGEGSQYGYVKHKIDSVDEANYSYAYTLIEGDALTDTIEKVSYETKLVASGSGSIIKSISHYHTKGDVEIKEEHVKAGKEKAHGLFKLIESYLKGHPDAYN
B2: mutant Bet v 1-Mal d 1 hybrid molecule (SEQ ID NO: 4) (protein)
chain: B1 chain with K60A, K121A, K129A, D192A, N245A
B3: mixture of the single wt allergens (wt Bet v 1 and wt Mal d 1) (protein)
chain 1: HHHHHHGVFNYETETTSVIPAARLFKAFILDGDNLFPKVAPQAISSVENIEGNGGPGTIKKISFPEGFPFKYVKDRVDEVDHTNFKYNYSVIEGGPIGDTLEKISNEIKIVATPDGGSILKINNKYHTKGDHEVKAEQIKASKEMGETLLRAVESYLLAHSDAYN
chain 2: HHHHHHGVYTFENEFTSEIPPSRLFKAFVLDADNLIPKIAPQAIKQAEILEGDGGPGTIKKITFGEGSQYGYVKHKIDSVDEANYSYAYTLIEGDALTDTIEKVSYETKLVASGSGSIIKSISHYHTKGDVEIKEEHVKAGKEKAHGLFKLIESYLKGHPDAYN
B4: mixture of the two mutagenised allergens (mut Bet v 1-SEQ ID NO:6 and mut Mal d 1-SEQ ID NO:2) (protein)
chain 1: B3 chain 1 with K60A, K121A, K129A
chain 2: B3 chain 2 with D31A, N84A
B5: hypoallergenic Mal d 1 variant with two substitutions, positions 25 and 78 (SEQ ID NO: 2) (protein)
chain: B3 chain 2 with D31A, N84A
B6: Mal d 1 variant with the single substitution Asn 78 in Ala (SEQ ID NO: 11) (protein)
chain: B3 chain 2 with N84A
B7: wild-type Bet v 1, major allergen of Betula verrucosa pollen (SEQ ID NO: 5) (protein)
chain: B3 chain 1
B8: wild-type Mal d 1, major allergen of Malus domestica (SEQ ID NO: 1) (protein)
chain: B3 chain 2

biological target: IgE of patient serum 7; test: ELISA inhibition, serum 7 pre-incubated with 1.25 µg/ml inhibitor; competitor: wt Bet v 1 adsorbed on wells

First: B1
Second: B2
The % inhibition of Bet v 1-IgE binding of the first is lower: 15.9% for the first, 18.2% for the second.

Going from B3 to B4, the % inhibition of Bet v 1-IgE binding falls from 36.8% to 20.6%.

biological target: IgE of patient serum 1; test: ELISA inhibition, serum 1 pre-incubated with 1.25 µg/ml inhibitor; competitor: wt Mal d 1 adsorbed on wells

Compared with B1, B2 is lower in % inhibition of Mal d 1-IgE binding: 92% for the first, 91% for the second.

Compared with B3, B4 is lower in % inhibition of Mal d 1-IgE binding: 95.5% for the first, 76.7% for the second.

biological target: IgEs from a pool of sera from patients allergic to birch pollen and apple; test: ELISA inhibition, serum pool pre-incubated with 0.3125 µg/ml inhibitor; competitor: wt Mal d 1 adsorbed on wells

B5 showed a % inhibition of wt Mal d 1-IgE binding of 25.4%.

For B6, the % inhibition of SEQ ID NO:1-IgE binding was 19.7%.

biological target: IgE of patient serum 3; test: ELISA inhibition, serum 3 pre-incubated with 1.25 µg/ml inhibitor; competitor: wt Mal d 1 adsorbed on wells

Compared with B1, B2 is lower in % inhibition of Mal d 1-IgE binding: 75.1% for the first, 66.3% for the second.

Going from B3 to B4, the % inhibition of Mal d 1-IgE binding falls from 80.5% to 49%.

biological target: IgEs from a pool of sera from patients allergic to birch pollen and apple; test: ELISA inhibition, serum pool pre-treated with 0.625 µg/ml inhibitor; competitor: wt Bet v 1 adsorbed on wells

First: B6
Second: B7
The % inhibition of wt Bet v 1-IgE binding of the first is lower: 32.1% for the first, 94% for the second.

biological target: IgE of patient serum 2; test: ELISA inhibition, serum 2 pre-incubated with 1.25 µg/ml inhibitor; competitor: wt Mal d 1 adsorbed on wells

First: B1
Second: B2
The % inhibition of Mal d 1-IgE binding of the first is higher: 84.5% for the first, 41.9% for the second.

First: B3
Second: B4
The % inhibition of Mal d 1-IgE binding of the first is higher: 93.9% for the first, 42.4% for the second.

biological target: IgE of patient serum 1; test: ELISA inhibition, serum 1 pre-incubated with 1.25 µg/ml inhibitor; competitor: wt Bet v 1 adsorbed on wells

Going from B1 to B2, the % inhibition of Bet v 1-IgE binding falls from 93.6% to 90.2%.

Compared with B3, B4 is lower in % inhibition of Bet v 1-IgE binding: 97.1% for the first, 88.4% for the second.

biological target: IgE of patient serum 5; test: ELISA inhibition, serum 5 pre-incubated with 1.25 µg/ml inhibitor; competitor: wt Mal d 1 adsorbed on wells

Compared with B1, B2 is lower in % inhibition of Mal d 1-IgE binding: 68% for the first, 50.8% for the second.

First: B3
Second: B4
The % inhibition of Mal d 1-IgE binding of the first is higher: 88.3% for the first, 27.6% for the second.

biological target: IgE of patient serum 3; test: ELISA inhibition, serum 3 pre-incubated with 1.25 µg/ml inhibitor; competitor: wt Bet v 1 adsorbed on wells

Going from B1 to B2, the % inhibition of Bet v 1-IgE binding falls from 76.2% to 35.9%.

Going from B3 to B4, the % inhibition of Bet v 1-IgE binding falls from 90.9% to 52.3%.

biological target: IgE of patient serum 6; test: ELISA inhibition, serum 6 pre-incubated with 1.25 µg/ml inhibitor; competitor: wt Mal d 1 adsorbed on wells

First: B1
Second: B2
The % inhibition of Mal d 1-IgE binding of the first is lower: 70.5% for the first, 70.8% for the second.

Going from B3 to B4, the % inhibition of Mal d 1-IgE binding falls from 73.7% to 53.9%.

biological target: IgE of patient serum 7; test: ELISA inhibition, serum 7 pre-incubated with 1.25 µg/ml inhibitor; competitor: wt Mal d 1 adsorbed on wells

First: B1
Second: B2
The % inhibition of Mal d 1-IgE binding of the first is higher: 60.6% for the first, 60.4% for the second.

First: B3
Second: B4
The % inhibition of Mal d 1-IgE binding of the first is higher: 70.3% for the first, 65.6% for the second.

biological target: specific IgE contained in the sera of 7 patients allergic to birch and apple; test: ELISA inhibition, 7 sera pre-incubated with 1.25 µg/ml inhibitor; competitor: wt Bet v 1 adsorbed on wells

First: B1
Second: B2
The mean % inhibition of Bet v 1-IgE binding (7 sera) of the first is higher: 63.3% for the first, 32.1% for the second.

First: B3
Second: B4
The mean % inhibition of Bet v 1-IgE binding (7 sera) of the first is higher: 79.9% for the first, 53.3% for the second.

biological target: IgE of patient serum 6; test: ELISA inhibition, serum 6 pre-incubated with 1.25 µg/ml inhibitor; competitor: wt Bet v 1 adsorbed on wells

Going from B1 to B2, the % inhibition of Bet v 1-IgE binding falls from 56.6% to 0%.

Going from B3 to B4, the % inhibition of Bet v 1-IgE binding falls from 65.2% to 41.8%.

biological target: IgE of patient serum 5; test: ELISA inhibition, serum 5 pre-incubated with 1.25 µg/ml inhibitor; competitor: wt Bet v 1 adsorbed on wells

Going from B1 to B2, the % inhibition of Bet v 1-IgE binding falls from 50.8% to 7.8%.

First: B3
Second: B4
The % inhibition of Bet v 1-IgE binding of the first is higher: 91.6% for the first, 41% for the second.

biological target: IgEs from a pool of sera from patients allergic to birch pollen and apple; test: ELISA inhibition, serum pool pre-treated with 0.3125 µg/ml inhibitor; competitor: wt Mal d 1 adsorbed on wells

B8 was tested, and the % inhibition of wt Mal d 1-IgE binding was 93.3%.

biological target: specific IgE contained in the sera of 7 patients allergic to birch and apple; test: ELISA inhibition, 7 sera pre-incubated with 1.25 µg/ml inhibitor; competitor: wt Mal d 1 adsorbed on wells

Compared with B1, B2 is lower in mean % inhibition of Mal d 1-IgE binding (7 sera): 74.6% for the first, 63.6% for the second.

Compared with B3, B4 is lower in mean % inhibition of Mal d 1-IgE binding (7 sera): 82.8% for the first, 51.6% for the second.

biological target: IgEs from a pool of sera from patients allergic to birch pollen and apple; test: ELISA inhibition, serum pool pre-incubated with 0.625 µg/ml inhibitor; competitor: wt Bet v 1 adsorbed on wells

Compared with B5, B8 is higher in % inhibition of wt Bet v 1-IgE binding: 4.2% for the first, 46% for the second.

biological target: IgE of patient serum 4; test: ELISA inhibition, serum 4 pre-incubated with 1.25 µg/ml inhibitor; competitor: wt Mal d 1 adsorbed on wells

Compared with B1, B2 is lower in % inhibition of Mal d 1-IgE binding: 71.3% for the first, 64.3% for the second.

Compared with B3, B4 is lower in % inhibition of Mal d 1-IgE binding: 77.3% for the first, 46% for the second.

biological target: IgE of patient serum 4; test: ELISA inhibition, serum 4 pre-incubated with 1.25 µg/ml inhibitor; competitor: wt Bet v 1 adsorbed on wells

First: B1
Second: B2
The % inhibition of Bet v 1-IgE binding of the first is higher: 61.7% for the first, 35.9% for the second.

Compared with B3, B4 is lower in % inhibition of Bet v 1-IgE binding: 81.2% for the first, 56.5% for the second.

biological target: IgE of patient serum 2; test: ELISA inhibition, serum 2 pre-incubated with 1.25 µg/ml inhibitor; competitor: wt Bet v 1 adsorbed on wells

First: B1
Second: B2
The % inhibition of Bet v 1-IgE binding of the first is higher: 85.1% for the first, 36.4% for the second.

Going from B3 to B4, the % inhibition of Bet v 1-IgE binding falls from 96.6% to 72.8%.

— patent publication US20140294878A1
